IntAct's records for PubMed 15572661

B1: Androgen receptor (Homo sapiens), P10275 (parent)
chain: MEVQLGLGRVYPRPPSKTYRGAFQNLFQSVREVIQNPGPRHPEAASAAPPGASLLLLQQQQQQQQQQQQQQQQQQQQQQQETSPRQQQQQQGEDGSPQAHRRGPTGYLVLDEEQQPSQPQSALECHPERGCVPEPGAAVAASKGLPQQLPAPPDEDDSAAPSTLSLLGPTFPGLSSCSADLKDILSEASTMQLLQQQQQEAVSEGSSSGRAREASGAPTSSKDNYLGGTSTISDNAKELCKAVSVSMGLGVEALEHLSPGEQLRGDCMYAPLLGVPPAVRPTPCAPLAECKGSLLDDSAGKSTEDTAEYSPFKGGYTKGLEGESLGCSGSAAAGSSGTLELPSTLSLYKSGALDEAAAYQSRDYYNFPLALAGPPPPPPPPHPHARIKLENPLDYGSAWAAAAAQCRYGDLASLHGAGAAGPGSGSPSAAASSSWHTLFTAEEGQLYGPCGGGGGGGGGGGGGGGGGGGGGGGEAGAVAPYGYTRPPQGLAGQESDFTAPDVWYPGGMVSRVPYPSPTCVKSEMGPWMDSYSGPYGDMRLETARDHVLPIDYYFPPQKTCLICGDEASGCHYGALTCGSCKVFFKRAAEGKQKYLCASRNDCTIDKFRRKNCPSCRLRKCYEAGMTLGARKLKKLGNLKLQEEGEASSTTSPTEETTQKLTVSHIEGYECQPIFLNVLEAIEPGVVCAGHDNNQPDSFAALLSSLNELGERQLVHVVKWAKALPGFRNLHVDDQMAVIQYSWMGLMVFAMGWRSFTNVNSRMLYFAPDLVFNEYRMHKSRMYSQCVRMRHLSQEFGWLQITPQEFLCMKALLLFSIIPVDGLKNQKFFDELRMNYIKELDRIIACKRKNPTSCSRRFYQLTKLLDSVQPIARELHQFTFDLLIKSHMVSVDFPEMMAEIISVQVPKILSGKVKPIYFHTQ

Variants of: B1
Conditions: with daxx_human DAXX

effect of a mutation on the interaction	Variant
decreasing interaction strength	K388R;K521R
